The results in this text go back to US20150274829A1.

The target of the assay is hu IGF-1R(ECD)-C3-muIgG1 Fc (human; mouse). Briefly: ORIGEN dose response competition on IGF-1R(ECD)-C3-muFc beads; competitor 1 nM Ru-IGF-1.

As for “murine anti-IGF-1R antibody αIR3 (Calbiochem)”, the Max (%), maximum level of inhibition at 1 µM antibody concentration was 91%.
